# According to IntAct's records for PubMed 10413501:
# B1: Ribonuclease inhibitor (Homo sapiens), P13489 (parent)
# chain: MSLDIQSLDIQCEELSDARWAELLPLLQQCQVVRLDDCGLTEARCKDISSALRVNPALAELNLRSNELGDVGVHCVLQGLQTPSCKIQKLSLQNCCLTGAGCGVLSSTLRTLPTLQELHLSDNLLGDAGLQLLCEGLLDPQCRLEKLQLEYCSLSAASCEPLASVLRAKPDFKELTVSNNDINEAGVRVLCQGLKDSPCQLEALKLESCGVTSDNCRDLCGIVASKASLRELALGSNKLGDVGMAELCPGLLHPSSRLRTLWIWECGITAKGCGDLCRVLRAKESLKELSLAGNELGDEGARLLCETLLEPGCQLESLWVKSCSFTAACCSHFSSVLAQNRFLLELQISNNRLEDAGVRELCQGLGQPGSVLRVLWLADCDVSDSSCSSLAATLLANHSLRELDLSNNCLGDAGILQLVESVRQPGCLLEQLVLYDIYWSEEMEDRLQALEKDKPSLRVIS
# Variants of: B1
# Details: with rnas1_bovin RNASE1, P61823
# Sequence of rnas1_bovin RNASE1, P61823 (P61823 whole entry): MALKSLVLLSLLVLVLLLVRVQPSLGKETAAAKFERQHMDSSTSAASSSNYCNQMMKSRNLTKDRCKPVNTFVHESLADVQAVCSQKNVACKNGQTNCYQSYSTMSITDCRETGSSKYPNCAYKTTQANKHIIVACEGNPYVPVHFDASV
row,effect of a mutation on the interaction,Variant
1,decreasing interaction,Y438F

# Variants of: B1
# Details: with rnas1_bovin RNASE1, P61823
# Remark: another data set of the same source
row,effect of a mutation on the interaction,Variant
1,decreasing interaction,Y435F
